Legend:
[1] = biological target: T1, hsGLUT4 Y159A (human, UniProt P14672 1-509); assay: flow cytometry, alanine-scan library in HEK-293T, with cytochalasin B
T1 sequence: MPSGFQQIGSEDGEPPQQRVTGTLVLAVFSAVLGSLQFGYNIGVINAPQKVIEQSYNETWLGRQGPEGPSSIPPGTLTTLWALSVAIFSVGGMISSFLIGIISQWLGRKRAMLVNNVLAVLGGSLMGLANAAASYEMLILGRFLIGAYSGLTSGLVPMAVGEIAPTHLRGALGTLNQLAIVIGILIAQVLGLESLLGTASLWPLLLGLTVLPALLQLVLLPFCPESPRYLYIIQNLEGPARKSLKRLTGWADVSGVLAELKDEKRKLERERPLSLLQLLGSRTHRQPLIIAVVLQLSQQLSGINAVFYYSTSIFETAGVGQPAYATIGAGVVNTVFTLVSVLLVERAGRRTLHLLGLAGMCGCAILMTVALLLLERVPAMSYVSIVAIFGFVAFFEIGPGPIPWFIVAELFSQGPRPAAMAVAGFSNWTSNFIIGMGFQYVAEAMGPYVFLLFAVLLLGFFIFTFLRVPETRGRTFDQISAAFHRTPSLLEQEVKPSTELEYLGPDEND

[2] = biological target: T2, mouse GLUT4 (mmGLUT4) (mouse, UniProt P14142 1-509); assay: immunofluorescence, permeabilized 3T3-L1 adipocytes (data not shown)
T2 construct: whole, on cells; Also tested as endogenous protein in murine 3T3-L1 adipocytes; also called endogenous GLUT4 of 3T3-L1 adipocytes
T2 sequence (looked up): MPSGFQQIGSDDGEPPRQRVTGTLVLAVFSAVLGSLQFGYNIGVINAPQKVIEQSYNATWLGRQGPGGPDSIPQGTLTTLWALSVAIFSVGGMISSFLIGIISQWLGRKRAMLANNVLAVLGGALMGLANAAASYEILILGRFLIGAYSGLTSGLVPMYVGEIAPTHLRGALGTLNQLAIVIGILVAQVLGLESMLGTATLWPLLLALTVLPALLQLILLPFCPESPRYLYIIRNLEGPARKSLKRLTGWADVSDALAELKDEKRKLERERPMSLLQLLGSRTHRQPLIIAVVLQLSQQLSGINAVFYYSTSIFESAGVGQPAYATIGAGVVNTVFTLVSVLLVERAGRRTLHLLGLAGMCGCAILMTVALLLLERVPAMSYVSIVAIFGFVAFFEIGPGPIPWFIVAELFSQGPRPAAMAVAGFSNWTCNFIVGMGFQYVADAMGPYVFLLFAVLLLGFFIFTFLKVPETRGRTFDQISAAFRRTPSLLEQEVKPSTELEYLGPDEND
Protocol: (§1) Adipocytes, between 7-8 days post-differentiation, were serum-starved for 3 hours in Dulbecco's modified Eagle's medium with […] bicarbonate and 20 mM HEPES pH 7.4, prior to stimulation for 20 minutes at 37° C. with or without 170 nM human insulin (Sigma Aldrich) prepared in the same media with 2% BSA. Adipocytes were washed twice with ice-cold PBS with calcium and magnesium (PBS+/+) and remained on ice for all subsequent steps.
(§2) Adipocytes were blocked with 10% Normal Goat Serum (NGS) in PBS+/+ for 30 minutes on ice before adding test antibodies at 10 ug/ml in 10% NGS. Primary antibodies were incubated for 2 hours, then washed 2× with PBS+/+. Cells were subsequently fixed for 5 minutes in 4% paraformaldehyde (PFA), washed 2× with PBS+/+, and then stained with secondary antibody (AF488 conjugated Goat anti-human, Jackson Immunoresearch) diluted 1:200 in 10% NGS. Secondary antibody was incubated for 1 hour, after washing 3× with PBS+/+. For intracellular staining, cells were fixed prior to the blocking step and permeabilized with 10% NGS containing 0.2% Saponin. The 1F8 antibody was used at 1 μg/ml, and detected using AF647-conjugated goat anti-mouse secondary antibody diluted 1:400 (Jackson Immunoresearch). Alexafluor 488 was visualized using the B-2EC cube with an exposure time of 1.5 seconds. Alexafluor 647 was visualized using the Cy5 cube with an exposure time of 2 seconds.

[3] = biological target: T2, mouse GLUT4 (mmGLUT4); assay: immunofluorescence, surface of 3T3-L1 adipocytes (data not shown)
Protocol: as §1, §2

[4] = biological target: T3, human GLUT4 (hsGLUT4), wild type (UniProt P14672 1-509); assay: BLI; avid
T3 chain: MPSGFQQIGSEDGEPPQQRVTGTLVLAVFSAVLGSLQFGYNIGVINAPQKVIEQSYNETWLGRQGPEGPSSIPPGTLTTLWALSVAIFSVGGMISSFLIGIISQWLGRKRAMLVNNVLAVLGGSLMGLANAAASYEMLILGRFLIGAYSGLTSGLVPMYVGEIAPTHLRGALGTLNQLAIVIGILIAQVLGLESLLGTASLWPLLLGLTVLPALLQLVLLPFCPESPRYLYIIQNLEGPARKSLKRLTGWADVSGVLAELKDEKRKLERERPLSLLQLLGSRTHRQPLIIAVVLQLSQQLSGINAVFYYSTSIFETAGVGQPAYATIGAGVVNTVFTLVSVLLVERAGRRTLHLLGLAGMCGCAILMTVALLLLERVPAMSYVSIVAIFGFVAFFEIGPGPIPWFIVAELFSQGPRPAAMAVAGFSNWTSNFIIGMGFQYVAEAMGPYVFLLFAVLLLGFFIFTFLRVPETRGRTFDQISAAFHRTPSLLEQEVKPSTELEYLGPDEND

B1: AB102 (Fc fusion)
scFv: ALTQPSSVSANLGGTVKITCSGGGSYGYGWYQQKSPGSAPVTVIYSNDQRPSDIPSRFSGSKSGSTATLTITGVRAEDEAIYYCGSTDSDYVGIFGAGTTLTVLGQSSRSSGGGGSSGGGGSAVTLDESGGGLQTPGGTLSLVCKASGFDFSSYATIWVRQAPGKGLEWVAGISGTGTGSSTGYAPAVKGRATISRDNGQSTVRLQLNNLRAEDTGSYFCAKSTGYGDSWIYPDSIDAWGHGTEVIVSS
notes: also called MAb AB102; not shown: Fc fragment of human IgG1, cloned in frame with the scFv
% of binding to wild type GLUT4 [1]: 11%
binding result [2]: binds

B2: AB105 (Fc fusion)
scFv: ALTQPSSVSANPGETVEITCSGDSSYYGWYQQKSPGSAPVTVIYANTNRPSDIPSRFSGSASGSTATLTITGVQAEDEAVYYCGSADSTYAGIFGAGTTLTVLGQSSRSSGGGGSSGGGGSAVTLDESGGGLQTPGGALSLICKASGFTFSSYTMNWVRQAPGKGLEWVGVISNSGRTTNYGAAVQGRATISRDNGQSTVRLQLNNLRAEDTGTYYCAKSSASASCAWWAGRSYPCSANRIDAWGHGTEVIVSS
notes: Bivalent scFv-Fc; also called MAb AB105; not shown: Fc fragment of human IgG1, cloned in frame with the scFv
binding result [3]: binds

B3: AB111 (Fc fusion)
scFv: ALTQPSSVSANPGETVKITCSGSGSWYGWFQQKSPGSAPVTVIYSNDKRPSDIPSRFSGSKSGSTSTLTITGVQVEDEAVYYCGNWDIFGAGTTLTVLGQSSRSSGGGGSSGGGGSAVTLDESGGGLQTPGGALSLVCKASGFTFSSHGMGWVRQAPGKGLEWVASISTGRYTFYAPAVKGRATISRDNGQSTVRLQLNNLRAEDTATYYCTKCAGLNGCGGGEIDAWGHGTEVIVSS
notes: Bivalent scFv-Fc; also called MAb AB111; not shown: Fc fragment of human IgG1, cloned in frame with the scFv
Kd [4]: 0.56 nM
binding result [2]: binds

B4: AB108 (Fc fusion)
scFv: ALTQPSSVSANLGGTVKITCSGSSGSYGWYQQKAPGSAPVTLIYRNDKRPSDIPSRFSGSESGSTGTLTITGVQAEDEAVYFCGGYDSSAGYAAFGAGTTLTVLGQSSRSSGGGGSSGGGGSAVTLDESGGGLQTPGGALSLVCKASGFTFSSHGMGWVRQAPGKGLEWVGSISTGRYTFYAPAVKGRATISRDNGQSTLRLQLNNLRAEDTGTYYCTKCAGLNGCGGGEIDAWGHGTEVIVSS
notes: Bivalent scFv-Fc; also called MAb AB108; not shown: Fc fragment of human IgG1, cloned in frame with the scFv
Kd [4]: 1.8 nM
